# The supplement of paper PMC12338614
# ± gives the uncertainty stated by the source.
# B1: library; numbered along this chain (parent)
# chain: MEVVDPQQLGMFTEGELMSVGMDTFIHRIDSTEVIYQPRRKRAKLIGKYLMGDLLGEGSYGKVKEVLDSETLCRRAVKILKKKKLRRIPNGEANVKKEIQLLRRLRHKNVIQLVDVLYNEEKQKMYMVMEYCVCGMQEMLDSVPEKRFPVCQAHGYFCQLIDGLEYLHSQGIVHKDIKPGNLLLTTGGTLKISDLGVAEALHPFAADDTCRTSQGSPAFQPPEIANGLDTFSGFKVDIWSAGVTLYNITTGLYPFEGDNIYKLFENIGKGSYAIPGDCGPPLSDLLKGMLEYEPAKRFSIRQIRQHSWFRKKHPPAEAPVPIPPSPDTKDRWRSMTVVPYLEDLHGADEDEDLFDIEDDIIYTQDFTVPGQVPEEEASHNGQRRGLPKAVCMNGTEAAQLSTKSRAEGRAPNPARKACSASSKIRRLSACKQQ
# Variants of: B1
# Assay: STK11 functional score (HeLa growth suppression), rescaled enrichment; synonymous median = 1, nonsense median = 0 (normalised score)
# Conditions: with HeLa; variant type: missense
# Summary of the method: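 Functional scores are post/pre-selection log ratios corrected to wild type, rescaled to synonymous and nonsense medians, merged over codons and replicate transfections, and given bootstrapped error. They come from POPCode libraries of codon-optimised STK11 integrated by Bxb1 at an AAVS1 landing pad in HeLa, three regions each transfected three times, with BFP-negative, mCherry-positive integrants sorted by FACS and tiled gDNA amplicons sequenced on NextSeq.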
row,Variant,STK11 functional score
1,L195S,0.972 ± 0.13
2,L195F,1.46 ± 0.21
3,L195W,0.87 ± 0.12
4,L195D,1.64 ± 0.15
5,L195A,1.17 ± 0.39
6,L195T,1.67 ± 0.15
7,L195I,1.44 ± 0.26
8,L195P,1.49 ± 0.18
9,L195G,0.969 ± 0.22
10,L195R,0.0408 ± 0.11
11,L195V,0.433 ± 0.14
12,L195E,1.59 ± 0.18
13,C210E,0.0554 ± 0.2
14,C210P,1.18 ± 0.4
15,C210L,0.435 ± 0.12
16,C210V,1 ± 0.26
17,C210S,0.964 ± 0.59
18,C210K,1.3 ± 0.49
19,C210I,1.12 ± 0.19
20,C210F,1.04 ± 0.12
21,C210H,1.42 ± 0.24
22,C210G,1.03 ± 0.12
23,C210D,1.37 ± 0.26
24,C210W,0.601 ± 0.2

row,Variant,STK11 functional score
1,C210M,0.956 ± 0.14
2,C210T,1.35 ± 0.19
3,C210A,1.33 ± 0.73
4,K191R,1.42 ± 0.19
5,K191L,0.262 ± 0.11
6,K191C,0.0918 ± 0.27
7,K191D,-0.393 ± 0.099
8,K191F,0.589 ± 0.19
9,K191N,0.186 ± 0.16
10,K191S,1.17 ± 0.19
11,K191A,1.12 ± 0.22
12,K191I,1.19 ± 0.51
13,K191V,1.19 ± 0.29
14,K191T,1.16 ± 0.12
15,K191G,0.729 ± 0.12
16,K191W,0.459 ± 0.11
17,V197A,1.26 ± 0.69
18,V197M,-0.102 ± 0.17
19,V197G,0.372 ± 0.21
20,V197C,1.55 ± 0.22
21,V197L,1.05 ± 0.21
22,V197W,1.25 ± 0.19
23,V197S,1.58 ± 0.4
24,V197R,1 ± 0.12

row,Variant,STK11 functional score
1,S213N,1.65 ± 0.19
2,S213M,1.15 ± 0.12
3,S213G,1.37 ± 0.14
4,S213L,1.17 ± 0.17
5,S213C,0.758 ± 0.11
6,S213F,1.35 ± 0.41
7,S213H,1.68 ± 0.18
8,S213R,1.04 ± 0.3
9,S213I,0.902 ± 0.14
10,S213P,1.32 ± 0.26
11,S213A,1.38 ± 0.49
12,D208W,0.524 ± 0.58
13,D208E,1.38 ± 0.51
14,D208A,1.19 ± 0.23
15,D208L,1.36 ± 0.18
16,D208M,1.7 ± 0.38
17,D208S,1.26 ± 0.13
18,D208Y,0.93 ± 0.38
19,D208R,1.59 ± 0.26
20,D208G,1.37 ± 0.23
21,D208T,1.04 ± 0.2
22,D208P,1.62 ± 0.24
23,D208Q,1.58 ± 0.3
24,D208N,1.4 ± 0.22

row,Variant,STK11 functional score
1,D208V,1.06 ± 0.12
2,D208I,1.31 ± 0.36
3,D208C,1.26 ± 0.38
4,R211V,1.35 ± 0.2
5,R211H,1.32 ± 0.11
6,R211M,1.42 ± 0.11
7,R211E,1.53 ± 0.29
8,R211G,1.51 ± 0.2
9,R211S,1.32 ± 0.15
10,R211Y,1.53 ± 0.57
11,R211F,1.61 ± 0.33
12,R211C,1.25 ± 0.43
13,R211T,1.22 ± 0.53
14,R211P,1.19 ± 0.33
15,R211I,0.844 ± 0.4
16,R211D,1.68 ± 0.17
17,R211A,1.28 ± 0.14
18,R211L,1.21 ± 0.19
19,L190P,0.0599 ± 0.15
20,L190D,-0.215 ± 0.095
21,L190M,1.21 ± 0.18
22,L190Y,0.0792 ± 0.094
23,L190W,0.118 ± 0.15
24,L190V,1 ± 0.28

row,Variant,STK11 functional score
1,L190S,0.0644 ± 0.18
2,L190F,0.343 ± 0.17
3,L190I,1.04 ± 0.35
4,L190R,0.223 ± 0.19
5,L190G,0.073 ± 0.17
6,L190A,0.537 ± 0.49
7,A198Y,1.04 ± 0.51
8,A198N,0.745 ± 0.5
9,A198V,1.38 ± 0.19
10,A198I,-0.192 ± 0.12
11,A198G,1.28 ± 0.11
12,A198T,1.23 ± 0.13
13,A198R,0.174 ± 0.098
14,A198H,1.54 ± 0.13
15,A198S,0.503 ± 0.23
16,A198W,1.16 ± 0.18
17,A198F,0.731 ± 0.25
18,A198L,1.13 ± 0.32
19,A198P,0.974 ± 0.23
20,G196R,-0.0503 ± 0.77
21,G196V,1.08 ± 0.12
22,G196A,0.488 ± 0.5
23,A206E,0.305 ± 0.46
24,A206V,0.497 ± 0.082

row,Variant,STK11 functional score
1,A206P,1.24 ± 0.15
2,A206T,0.479 ± 0.13
3,A206I,1.46 ± 0.47
4,A206D,1.07 ± 0.12
5,A206F,0.495 ± 0.22
6,A206R,1.64 ± 0.13
7,A206Q,1.07 ± 0.092
8,A206S,1.17 ± 0.093
9,A206N,1.66 ± 0.2
10,A206G,1.14 ± 0.26
11,A206L,1.03 ± 0.21
12,A206W,0.035 ± 0.16
13,G187V,0.795 ± 0.26
14,G187T,1.59 ± 0.4
15,G187W,1.65 ± 0.13
16,P203L,1.27 ± 0.73
17,P203R,1.01 ± 0.65
18,P203H,0.686 ± 0.62
19,P203S,1.68 ± 0.46
20,P203A,0.904 ± 0.61
21,H202R,0.161 ± 0.26
22,H202N,0.176 ± 0.17
23,H202T,0.925 ± 0.22
24,H202F,0.754 ± 0.15

row,Variant,STK11 functional score
1,H202E,1.47 ± 0.23
2,H202P,0.806 ± 0.12
3,H202S,1.17 ± 0.25
4,H202L,0.766 ± 0.12
5,H202W,0.389 ± 0.18
6,H202I,1.31 ± 0.21
7,H202G,1.3 ± 0.16
8,H202V,1.27 ± 0.26
9,H202D,0.804 ± 0.38
10,H202M,1.19 ± 0.31
11,H202A,1.17 ± 0.49
12,D207P,1.01 ± 0.7
13,D207V,1.09 ± 0.41
14,D207R,1.55 ± 0.24
15,D207A,1.27 ± 0.29
16,D207W,0.239 ± 0.18
17,D207E,1.48 ± 0.51
18,D207H,1.37 ± 0.57
19,D207M,1.17 ± 0.12
20,D207G,0.954 ± 0.25
21,D207Y,0.314 ± 0.099
22,D207S,0.778 ± 0.12
23,D207L,0.856 ± 0.12
